Measurements: patent publication US11078242 (SOTIRA COVID, dated 2021)

Legend:
[1] = biological target: T1, angiotensin converting enzyme-2 (ACE-2), full-length ACE-2 protein (UniProt Q9BYF1 18-740); assay: FITC-labeled ACIS (FIG. 4B)
T1 construct: also called ACE-2 enzyme; ACE-2 receptor

[2] = biological target: T1, angiotensin converting enzyme-2 …; assay: fluorescence polarization; FITC-tagged ACIS peptide titrated with hACE-2

T1 sequence (Q9BYF1 18-740 limits assumed): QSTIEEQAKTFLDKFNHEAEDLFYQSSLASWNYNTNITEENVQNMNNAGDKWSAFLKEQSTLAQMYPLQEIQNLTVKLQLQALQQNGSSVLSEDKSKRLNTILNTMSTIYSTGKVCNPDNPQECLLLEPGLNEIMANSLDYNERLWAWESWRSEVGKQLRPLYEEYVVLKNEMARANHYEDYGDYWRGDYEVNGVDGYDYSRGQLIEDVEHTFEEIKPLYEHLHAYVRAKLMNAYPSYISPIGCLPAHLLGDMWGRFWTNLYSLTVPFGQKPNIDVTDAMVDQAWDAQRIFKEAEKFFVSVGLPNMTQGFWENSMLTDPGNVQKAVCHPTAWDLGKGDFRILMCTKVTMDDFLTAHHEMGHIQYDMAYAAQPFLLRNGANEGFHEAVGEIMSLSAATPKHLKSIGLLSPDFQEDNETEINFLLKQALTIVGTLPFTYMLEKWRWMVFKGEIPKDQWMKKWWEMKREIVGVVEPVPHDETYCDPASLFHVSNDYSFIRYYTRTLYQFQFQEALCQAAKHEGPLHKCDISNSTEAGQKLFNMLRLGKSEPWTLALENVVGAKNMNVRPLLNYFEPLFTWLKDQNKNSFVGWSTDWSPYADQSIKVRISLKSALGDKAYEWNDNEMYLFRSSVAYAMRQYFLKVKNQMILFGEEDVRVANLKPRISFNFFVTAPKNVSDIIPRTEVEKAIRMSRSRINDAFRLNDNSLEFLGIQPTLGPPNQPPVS

B1: KEPTIDE2 (FITC tagged KEPTIDE; ACIS peptide tagged with FITC probe at C-terminal end) (peptide)
peptide: FQPTNGVGYQPYGK
modifications: FITC at the C-terminal end (on the C-terminal lysine tag according to paragraph 109)
notes: also called FITC-tagged ACIS peptide; FITC-labeled ACIS
[1]
  IC50: 24.5 nM
[2]
  EC50 (read off the curve): ~6 nM
  Kd: 6.38 nM
